In publication PMC2926950 (Bioorganic & medicinal chemistry, 2009):
Ends that are not written are not given here.

T1: hDMX_(1-200) (human, UniProt O15151 1-200)
T1 sequence (looked up): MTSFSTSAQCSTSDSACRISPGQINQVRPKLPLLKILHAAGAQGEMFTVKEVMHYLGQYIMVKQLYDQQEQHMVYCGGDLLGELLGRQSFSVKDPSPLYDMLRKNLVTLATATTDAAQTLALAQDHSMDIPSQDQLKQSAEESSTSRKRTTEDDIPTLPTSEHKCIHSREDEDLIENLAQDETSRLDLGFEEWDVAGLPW


How the values were obtained:
hDMX_(1-200) [1] = biological target: T1, hDMX_(1-200); experiment: fluorescence polarisation
hDMX_(1-200) [2] = biological target: T1, hDMX_(1-200); experiment: fluorescence polarisation; remark: listed apart in the source

IC50 (hDMX_(1-200) [1])	Kd (hDMX_(1-200) [2])	Binder
3870 ± 389 nM		MRPFMDYWEGLN [p53 12/1]
	237 ± 21.5 nM	MRPFMDYWEGLN (also: fluorescent label (flu), position not given here) [p53 12/1^flu]
	841 ± 28.8 nM	SQETFSDLWKLLPENNV (peptide, UniProt P04637 15-31, looked up, also: fluorescent label (flu), position not given here) [p53AD15−31^flu]
